In publication PMC4775916 (Antimicrobial Agents and Chemotherapy, 2016):
Where “and” joins values, the source holds several entries; their conditions need not be identical. Equal values may be shown once.

Key:
[1] = tested on: O=C(Cc1cccs1)N[C@@H]1C(=O)N2C(C(=O)O)=C(/C=C/c3ccc([N+](=O)[O-])cc3[N+](=O)[O-])CS[C@H]12; experiment: Nitrocefin hydrolysis kinetics before thermal denaturation and after refolding; type: biochemical; details: other: nitrocefin hydrolysis
Protocol: Circular dichroism (CD) analyses were carried out using a Chirascan CD spectrophotometer (Applied Photophysics) equipped with a Peltier temperature-controlled cell holder. CD measurements were collected in the range of 185 to 260 nm; spectra were baseline corrected and smoothed using a Savitzky-Golay filter. Data were normalized at 207 nm to account for differences in protein concentrations ([38]), and the estimation of secondary structure content was performed with Dichro Web ([39]) using the CONTIN Analysis Programme (reference set 6) ([40]). Melting temperatures (Tm) of the recombinant enzymes were determined by monitoring temperature-induced changes in the CD signal at 222 nm. The temperature was increased by 1°C per min, and the CD signal was recorded at temperatures ranging from 25°C to 92°C. The samples were then cooled from 92°C to 25°C at the same rate, and a CD spectrum of the refolded proteins was determined. The activity of the enzymes was recorded before thermal denaturation and after refolding by monitoring nitrocefin hydrolysis. The thermal denaturation data were fitted to a Boltzmann sigmoidal curve by using GraphPad Prism 5.0 software. CD spectra and thermal denaturation curves are shown in Fig. 2 and in Tables S2 and S3 in the supplemental material.

[2] = tested on: C[C@@H](O)[C@H]1C(=O)N2C(C(=O)O)=C(SCCN=CN)C[C@H]12; experiment: purified protein, by the assay type; type: biochemical; details: other: 50 mM HEPES pH 7.2, apparent for ampicillin and ceftazidime
Protocol: (§1) The hydrolysis of a representative panel of β-lactam substrates was monitored at their respective absorbance wavelengths. The wavelengths and extinction coefficients used were previously described ([34]). The assays were carried out using 50 mM HEPES buffer (pH 7.2) supplemented with 1 μg/ml bovine serum albumin (BSA), 1 μM ZnSO4, and 0.01% Triton X-100. In the case of VIM-1, C-terminally His6-tagged VIM-1 was used for kinetic analyses. Note that no differences were observed between the activities of untagged VIM-1 and C-terminally His6-tagged VIM-1 for the selected antibiotics (data not shown). The initial rates were obtained from the changes in absorbance at various substrate concentrations. Steady-state kinetic parameters (Km and kcat) were determined by fitting the initial velocity data to the Michaelis-Menten equation using GraphPad Prism 5.01 software (see Table S4 in the supplemental material).

[3] = tested on: O=C(Cc1cccs1)N[C@@H]1C(=O)N2C(C(=O)O)=C(/C=C/c3ccc([N+](=O)[O-])cc3[N+](=O)[O-])CS[C@H]12; experiment: purified protein, by the assay type; type: biochemical; details: other: 50 mM HEPES pH 7.2, apparent for ampicillin and ceftazidime
Protocol: as §1

[4] = tested on: CC(=O)OCC1=C(C(=O)O)N2C(=O)[C@@H](NC(=O)Cc3cccs3)[C@H]2SC1; experiment: purified protein, by the assay type; type: biochemical; details: other: 50 mM HEPES pH 7.2, apparent for ampicillin and ceftazidime
Protocol: as §1

[5] = tested on: CC(C)(O/N=C(\C(=O)N[C@@H]1C(=O)N2C(C(=O)[O-])=C(C[n+]3ccccc3)CS[C@H]12)c1csc(N)n1)C(=O)O; experiment: purified protein, by the assay type; type: biochemical; details: other: 50 mM HEPES pH 7.2, apparent for ampicillin and ceftazidime
Protocol: as §1

[6] = tested on: CO[C@@]1(NC(=O)Cc2cccs2)C(=O)N2C(C(=O)O)=C(COC(N)=O)CS[C@@H]21; experiment: purified protein, by the assay type; type: biochemical; details: other: 50 mM HEPES pH 7.2, apparent for ampicillin and ceftazidime
Protocol: as §1

[7] = tested on: C[C@@H](O)[C@H]1C(=O)N2C(C(=O)O)=C(S[C@@H]3CN[C@H](C(=O)N(C)C)C3)[C@H](C)[C@H]12; experiment: purified protein, by the assay type; type: biochemical; details: other: 50 mM HEPES pH 7.2, apparent for ampicillin and ceftazidime
Protocol: as §1

[8] = molecular target: T1, VIM-38 (Pseudomonas aeruginosa, UniProt A0A0F7KYQ8, A128K/A265V/E202A/H201L/K257T/S205R); experiment: Inhibition of enzyme-mediated nitrocefin hydrolysis; type: biochemical
T1 construct: The N- and C- terminal residues of the mature enzymes are labelled 26; His6 with HRV3C cleavage site (pET-28a) (N, cleaved yes); made in house; host or cells: E. coli BL21(DE3)
Protocol: (§2) Inhibitors were prepared as reported previously ([36], [41]). Enzyme-mediated hydrolysis of nitrocefin was monitored by determining the changes in absorbance at 495 nm, as previously described ([36], [37]). Residual activities were first determined at a 100 μM inhibitor concentration. […] The residual activities were obtained at increasing inhibitor concentrations (0.2 to 2,000 μM); the data were analyzed using GraphPad Prism 5.01 software.

[9] = molecular target: T2, VIM-5 (Pseudomonas aeruginosa, UniProt A0A0F7KYQ8, A128K/E202A/H201L/K257T/S205R); experiment: as above; type: biochemical
T2 construct: His6 with HRV3C cleavage site (pET-28a) (N, cleaved yes); made in house; host or cells: E. coli BL21(DE3)
Protocol: as §2

[10] = molecular target: T3, VIM-4 (Pseudomonas aeruginosa, UniProt A0A0F7KYQ8, S205R); experiment: as above; type: biochemical; details: read-out: IC50 VIM-4 (H224, R228); also: 10 min preincubation
T3 construct: His6 (N, cleaved yes); made in house
Protocol: as §2

[11] = molecular target: T4, VIM-2 (Escherichia coli, UniProt Q5U7L7); experiment: as above; type: biochemical; details: read-out: IC50 VIM-2 (Y224, R228)
T4 construct: His6 (N, cleaved yes); made in house
Protocol: as §2

[12] = molecular target: T5, VIM-1 (Pseudomonas aeruginosa, UniProt A0A0F7KYQ8); experiment: as above; type: biochemical; details: read-out: IC50 VIM-1 (H224, S228)
T5 construct: The N- and C- terminal residues of the mature enzymes are labelled 26; made in house
Protocol: as §2

[13] = tested on: VIM-5; set-up: method as in Garcar et al. (6); details: previous studies ref Garcar et al. (6), cited from earlier work
[14] = molecular target: T4, VIM-2; type: biochemical; details: 50 mM HEPES pH 7.2; apparent for ampicillin and ceftazidime
Protocol: as §1

[15] = molecular target: T1, VIM-38; experiment: Steady-state kinetics of β-lactam substrate hydrolysis; type: biochemical; details: 50 mM HEPES pH 7.2, apparent for ampicillin and ceftazidime
Protocol: as §1

[16] = molecular target: T2, VIM-5; experiment: as above; type: biochemical
Protocol: as §1

[17] = molecular target: T5, VIM-1; experiment: as above; type: biochemical; details: C-terminally His6-tagged VIM-1; 50 mM HEPES pH 7.2; apparent for ampicillin and ceftazidime
Protocol: as §1

[18] = molecular target: T5, VIM-1; details: previous studies ref Franceschini et al. (4), cited from earlier work
[19] = tested on: VIM-2; set-up: method as in Poirel et al. (5); details: previous studies ref Poirel et al. (5), cited from earlier work
[20] = tested on: C[C@@H](O)[C@H]1C(=O)N2C(C(=O)O)=C(SCCN=CN)C[C@H]12; experiment: Steady-state kinetics of β-lactam substrate hydrolysis; type: biochemical; details: other: C-terminally His6-tagged VIM-1, 50 mM HEPES pH 7.2, apparent for ampicillin and ceftazidime
Protocol: as §1

[21] = tested on: O=C(Cc1cccs1)N[C@@H]1C(=O)N2C(C(=O)O)=C(/C=C/c3ccc([N+](=O)[O-])cc3[N+](=O)[O-])CS[C@H]12; experiment: as above; type: biochemical; details: other: C-terminally His6-tagged VIM-1, 50 mM HEPES pH 7.2, apparent for ampicillin and ceftazidime
Protocol: as §1

[22] = tested on: CC(=O)OCC1=C(C(=O)O)N2C(=O)[C@@H](NC(=O)Cc3cccs3)[C@H]2SC1; experiment: as above; type: biochemical; details: other: C-terminally His6-tagged VIM-1, 50 mM HEPES pH 7.2, apparent for ampicillin and ceftazidime
Protocol: as §1

[23] = tested on: CC(C)(O/N=C(\C(=O)N[C@@H]1C(=O)N2C(C(=O)[O-])=C(C[n+]3ccccc3)CS[C@H]12)c1csc(N)n1)C(=O)O; experiment: as above; type: biochemical; details: other: C-terminally His6-tagged VIM-1, 50 mM HEPES pH 7.2, apparent for ampicillin and ceftazidime
Protocol: as §1

[24] = tested on: CO[C@@]1(NC(=O)Cc2cccs2)C(=O)N2C(C(=O)O)=C(COC(N)=O)CS[C@@H]21; experiment: as above; type: biochemical; details: other: C-terminally His6-tagged VIM-1, 50 mM HEPES pH 7.2, apparent for ampicillin and ceftazidime
Protocol: as §1

[25] = tested on: C[C@@H](O)[C@H]1C(=O)N2C(C(=O)O)=C(S[C@@H]3CN[C@H](C(=O)N(C)C)C3)[C@H](C)[C@H]12; experiment: as above; type: biochemical; details: other: C-terminally His6-tagged VIM-1, 50 mM HEPES pH 7.2, apparent for ampicillin and ceftazidime
Protocol: as §1

VIM-2 (Escherichia coli)
Km ([1]; after refolding): 15 ± 1 µM
kcat ([1]; after refolding): 130 s⁻¹
kcat/Km ([1]; after refolding): 8.7e+06 M⁻¹ s⁻¹
Km [2]: 33 ± 4 µM and 30 ± 4 µM
kcat [2]: 95 s⁻¹ and 100 s⁻¹
kcat/Km [2]: 3.3e+06 M⁻¹ s⁻¹
Km [3]: 50 ± 5 µM
kcat [3]: 510 s⁻¹
kcat/Km [3]: 1.02e+07 M⁻¹ s⁻¹
Km [4]: 50 ± 6 µM
kcat [4]: 210 s⁻¹
kcat/Km [4]: 4.2e+06 M⁻¹ s⁻¹
Km [5]: 120 ± 20 µM
kcat [5]: 2 s⁻¹
kcat/Km [5]: 20000 M⁻¹ s⁻¹
Km [6]: 40 ± 10 µM
kcat [6]: 50 s⁻¹
kcat/Km [6]: 1.3e+06 M⁻¹ s⁻¹
Km [7]: 20 ± 4 µM
kcat [7]: 7 s⁻¹
kcat/Km [7]: 300000 M⁻¹ s⁻¹

O=C(N[C@H](Cc1c[nH]c2ccccc12)C(=O)O)c1ncccc1O [compound 3]
IC50 [8]: 50 µM
IC50 [9]: 50 µM
IC50 [10]: 125 µM
IC50 [11]: 100 µM
IC50 [12]: 50 µM

CC(C)(O/N=C(\C(=O)N[C@@H]1C(=O)N2C(C(=O)[O-])=C(C[n+]3ccccc3)CS[C@H]12)c1csc(N)n1)C(=O)O [Ceftazidime]
kcat VIM-5 (previous study) [13]: 0.2 s⁻¹
Km ([13]; read-out: Km VIM-5 (previous study)): 149 µM
kcat VIM-2 [14]: 2 s⁻¹
kcat VIM-38 [15]: 4 s⁻¹
Km ([15]; read-out: Mean Km ± SD VIM-38): 430 ± 140 µM
kcat VIM-5 ([16]; 50 mM HEPES pH 7.2, apparent for ampicillin and ceftazidime): 4 s⁻¹
Km ([16]; read-out: Mean Km ± SD VIM-5, 50 mM HEPES pH 7.2, apparent for ampicillin and ceftazidime): 340 ± 80 µM
fold-higher hydrolysis efficiency by VIM-5 than previously reported ([16]; this study versus previously reported ([26])): 10 fold
kcat VIM-1 [17]: 3 s⁻¹
kcat VIM-1 (previous study) [18]: 60 s⁻¹
Km ([18]; read-out: Km VIM-1 (previous study)): 794 µM
kcat VIM-2 (previous study) [19]: 89 s⁻¹
Km ([19]; read-out: Km VIM-2 (previous study)): 98 µM

VIM-1 (Pseudomonas aeruginosa PAO1)
Km ([1]; after refolding): 26 ± 3 µM
Km ([1]; pre-heating): 20 ± 2 µM
kcat ([1]; pre-heating): 7 s⁻¹
kcat/Km ([1]; pre-heating): 300000 M⁻¹ s⁻¹
Km [20]: 60 ± 10 µM
kcat [20]: 30 s⁻¹
kcat/Km [20]: 500000 M⁻¹ s⁻¹
Km [21]: 15 ± 1 µM
kcat [21]: 130 s⁻¹
kcat/Km [21]: 8.7e+06 M⁻¹ s⁻¹
Km [22]: 140 ± 10 µM
kcat [22]: 450 s⁻¹
kcat/Km [22]: 3.2e+06 M⁻¹ s⁻¹
Km [23]: 180 ± 60 µM
kcat [23]: 3 s⁻¹
kcat/Km [23]: 20000 M⁻¹ s⁻¹
Km [24]: 170 ± 50 µM
kcat [24]: 30 s⁻¹
kcat/Km [24]: 200000 M⁻¹ s⁻¹
Km [25]: 130 ± 20 µM
kcat [25]: 50 s⁻¹
kcat/Km [25]: 400000 M⁻¹ s⁻¹
